Drawing on patent US20180318417A1 (COMPASS THERAPEUTICS, published 2018), this text covers binding result and Kd for four molecules.

Test [1] has as its target T1, Recombinant human CD137 Fc fusion protein (Sino Biological) (human, UniProt Q07011 24-186).
T1 construct: not shown: Fc part of the bought fusion protein
In words: ForteBio Octet BLI; antigen-Fc on Protein A sensor, construct in solution. For orientation: BLI is a label-free optical method that tracks binding on a fibre tip over time.

Test [2] has as its target T2, Recombinant human PD-1 Fc fusion protein (Sino Biological) (human, UniProt Q15116 25-167).
T2 construct: not shown: Fc part of the bought fusion protein
In words: ForteBio Octet BLI; antigen-Fc on Protein A sensor, 100 nM construct. Here is the method:
(§1) Antigen binding of MIAC constructs were analyzed using ForteBio Octet. […] All antigens were reconstituted in PBS at the final concentration of 0.25 ug/ul. […] Association proceeded by dipping sensors in 100 nM MIAC constructs for 5 minutes and disassociation occurred in blank kinetics buffer for 5 minutes. For CD3 epsilon binding, antigen was immobilized on Ni-NTA sensors; association was performed in 50 nM MIAC constructs. Binding data were analyzed using ForteBio Data Analysis 9.0 software.

Test [3] has as its target T2, Recombinant human PD-1 Fc fusion …. In words: ForteBio Octet BLI; antigen-Fc on Protein A sensor, construct in solution.
Test [4] concerns the target T3, Recombinant human Her2 Fc fusion protein (Sino Biological) (human, UniProt P04626 23-652).
T3 construct: not shown: Fc part of the bought fusion protein
The test is described as above.

The target of test [5] is T1, Recombinant human CD137 Fc fusion …. The experiment in a line: ForteBio Octet BLI; antigen-Fc on Protein A sensor, 100 nM construct. As for the experimental part: as §1

T2 sequence (Q15116 25-167 limits assumed): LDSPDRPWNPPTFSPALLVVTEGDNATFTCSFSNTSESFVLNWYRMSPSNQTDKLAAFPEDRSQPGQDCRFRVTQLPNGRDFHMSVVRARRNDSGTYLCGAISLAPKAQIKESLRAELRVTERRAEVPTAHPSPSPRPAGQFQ

B1: PID-7 (bispecific Her2/PD-1 MIAC; Pembrolizumab IgG1 with Trastuzumab scFv at the heavy chain C-termini) (bispecific antibody)
heavy: not shown
light: EIVLTQSPATLSLSPGERATLSCRASKGVSTSGYSYLHWYQQKPGQAPRLLIYLASYLESGVPARFSGSGSGTDFTLTISSLEPEDFAVYYCQHSRDLPLTFGGGTKVEIKRTVAAPSVFIFPPSDEQLKSGTASVVCLLNNFYPREAKVQWKVDNALQSGNSQESVTEQDSKDSTYSLSSTLTLSKADYEKHKVYACEVTHQGLSSPVTKSFNRGEC
notes: also called α-Her2/α-PD-1
One may read the Kd as the free concentration of one partner at which half of the binding sites on the other are occupied at equilibrium, for simple one-to-one binding. Take B1: in test [1], the binding result was “no binding (tested: 100 nM)”. In addition, the equilibrium dissociation constant (Kd) in test [2] worked out at 120 pM.

B2: PID-90 (monospecific anti-CD137; Urelumab Fab domain, human IgG1 constant domain) (antibody, V domains shown)
VH: QVQLQQWGAGLLKPSETLSLTCAVYGGSFSGYYWSWIRQSPEKGLEWIGEINHGGYVTYNPSLESRVTISVDTSKNQFSLKLSSVTAADTAVYYCARDYGPGNYDWYFDLWGRGTLVTVSS
VL: EIVLTQSPATLSLSPGERATLSCRASQSVSSYLAWYQQKPGQAPRLLIYDASNRATGIPARFSGSGSGTDFTLTISSLEPEDFAVYYCQQRSNWPPALTFGGGTKVEIKR
notes: also called PID90 (CD137)
For B2, the binding result in test [3] and in test [4] was “no binding (tested: 100 nM)” each time. For the same molecule, the dissociation constant Kd in test [5] was found to be 700 pM.

B3: PID-92 (bispecific Her2/CD137 MIAC; Urelumab IgG1 with Trastuzumab scFv at the heavy chain C-termini) (bispecific antibody)
heavy: not shown
light: not shown
notes: also called α-Her2/α-CD137 MIAC; PID92 [Her2/CD137]
As to B3, in test [3], the binding result was “no binding (tested: 100 nM)”. For the same molecule, in test [5], the dissociation constant Kd came to 230 pM.

B4: PID-2 (monospecific anti-PD-1; Pembrolizumab Fab domain, human IgG1 constant domain) (antibody, V domains shown)
VH: QVQLVQSGVEVKKPGASVKVSCKASGYTFTNYYMYWVRQAPGQGLEWMGGINPSNGGTNFNEKFKNRVTLTTDSSTTTAYMELKSLQFDDTAVYYCARRDYRFDMGFDYWGQGTTVTVSS
VL: EIVLTQSPATLSLSPGERATLSCRASKGVSTSGYSYLHWYQQKPGQAPRLLIYLASYLESGVPARFSGSGSGTDFTLTISSLEPEDFAVYYCQHSRDLPLTFGGGTKVEIKR
notes: also called PID2 (PD-1)
As for B4, the binding result in test [1] and in test [4] was “no binding (tested: 100 nM)” each time.
